± gives the uncertainty stated by the source.

To fix the notation:
B1: Intersectin-2, residues 1129 to 1183; numbered along this chain, Q9NZM3 (parent)
chain: VCQVIAMYDYAANNEDELSFSKGQLINVMNKDDPDWWQGEINGVTGLFPSNYVKM

In this data set the parent is B1. As to the kind of experiment: abundance fitness (aPCA) (normalised: wild type 0, dead -1); higher = more abundant; growth selection in yeast, the domain comes from the species named. The settings on record: Homo sapiens.
As to VCQVIAMYDYAANNKDELSFSKGQLINVMNKDDPDWWQGEINGVTGLFPSNYVKM [E15K], the abundance fitness was -0.048 ± 0.059.
As to VCQVIAMYDYAANNHDELSFSKGQLINVMNKDDPDWWQGEINGVTGLFPSNYVKM [E15H], the abundance fitness amounted to 0 ± 0.068.
With VCQVIAMYDYAANNGDELSFSKGQLINVMNKDDPDWWQGEINGVTGLFPSNYVKM [E15G], the abundance fitness was -0.006 ± 0.034.
On to VCQVIAMYDYAANNYDELSFSKGQLINVMNKDDPDWWQGEINGVTGLFPSNYVKM [E15Y], for which the abundance fitness is -0.002 ± 0.06.
On to VCQVIAMYDYAANNSDELSFSKGQLINVMNKDDPDWWQGEINGVTGLFPSNYVKM [E15S], for which the abundance fitness was -0.01 ± 0.039.
On to VCQVIAMYDYAANNRDELSFSKGQLINVMNKDDPDWWQGEINGVTGLFPSNYVKM [E15R], for which the abundance fitness is -0.037 ± 0.03.
Turning to VCQVIAMYDYAANNWDELSFSKGQLINVMNKDDPDWWQGEINGVTGLFPSNYVKM [E15W], the abundance fitness is -0.141 ± 0.047.
For VCQVIAMYDYAANNPDELSFSKGQLINVMNKDDPDWWQGEINGVTGLFPSNYVKM [E15P], the abundance fitness was 0.011 ± 0.036.
Consider VCQVIAMYDYAANNADELSFSKGQLINVMNKDDPDWWQGEINGVTGLFPSNYVKM [E15A], for which the abundance fitness was -0.03 ± 0.036.
Regarding VCQVIAMYDYAANNNDELSFSKGQLINVMNKDDPDWWQGEINGVTGLFPSNYVKM [E15N], the abundance fitness is -0.123 ± 0.069.
On to VCQVIAMYDYAANNFDELSFSKGQLINVMNKDDPDWWQGEINGVTGLFPSNYVKM [E15F], for which the abundance fitness is -0.12 ± 0.06.
For the variant VCQVIAMYDYAANNCDELSFSKGQLINVMNKDDPDWWQGEINGVTGLFPSNYVKM [E15C], the abundance fitness is -0.048 ± 0.031.
In the case of VCQVIAMYDYAANNIDELSFSKGQLINVMNKDDPDWWQGEINGVTGLFPSNYVKM [E15I], the abundance fitness was -0.076 ± 0.054.
As to VCQVIAMYDYAANNMDELSFSKGQLINVMNKDDPDWWQGEINGVTGLFPSNYVKM [E15M], the abundance fitness is -0.083 ± 0.061.
Take VCQVIAMYDYAANNVDELSFSKGQLINVMNKDDPDWWQGEINGVTGLFPSNYVKM [E15V]: the abundance fitness is -0.014 ± 0.045.
As for VCQVIAMYDYAANNTDELSFSKGQLINVMNKDDPDWWQGEINGVTGLFPSNYVKM [E15T], the figure is 0.033 ± 0.049; as for VCQVIAMYDYAANNEDEFSFSKGQLINVMNKDDPDWWQGEINGVTGLFPSNYVKM [L18F], -0.2 ± 0.057; as for VCQVIAMYDYAANNEDEMSFSKGQLINVMNKDDPDWWQGEINGVTGLFPSNYVKM [L18M], -0.046 ± 0.054.
In the case of VCQVIAMYDYAANNEDEASFSKGQLINVMNKDDPDWWQGEINGVTGLFPSNYVKM [L18A], the abundance fitness is -0.715 ± 0.06.
Take VCQVIAMYDYAANNEDEQSFSKGQLINVMNKDDPDWWQGEINGVTGLFPSNYVKM [L18Q]: the abundance fitness was -0.704 ± 0.12.
Turning to VCQVIAMYDYAANNEDESSFSKGQLINVMNKDDPDWWQGEINGVTGLFPSNYVKM [L18S], the abundance fitness is -0.854 ± 0.064.
On to VCQVIAMYDYAANNEDEDSFSKGQLINVMNKDDPDWWQGEINGVTGLFPSNYVKM [L18D], for which the abundance fitness was -1.04 ± 0.21.
As for VCQVIAMYDYAANNEDERSFSKGQLINVMNKDDPDWWQGEINGVTGLFPSNYVKM [L18R], the figure is -0.979 ± 0.072.
In the case of VCQVIAMYDYAANNEDEPSFSKGQLINVMNKDDPDWWQGEINGVTGLFPSNYVKM [L18P], the abundance fitness is -0.895 ± 0.18.
Turning to VCQVIAMYDYAANNEDEHSFSKGQLINVMNKDDPDWWQGEINGVTGLFPSNYVKM [L18H], the abundance fitness was -0.512 ± 0.076.
In the case of VCQVIAMYDYAANNEDECSFSKGQLINVMNKDDPDWWQGEINGVTGLFPSNYVKM [L18C] it was -0.378 ± 0.058.
Consider VCQVIAMYDYAANNEDEYSFSKGQLINVMNKDDPDWWQGEINGVTGLFPSNYVKM [L18Y], for which the abundance fitness was -0.966 ± 0.16.
In the case of VCQVIAMYDYAANNEDEWSFSKGQLINVMNKDDPDWWQGEINGVTGLFPSNYVKM [L18W], the abundance fitness was -0.841 ± 0.077.
With VCQVIAMYDYAANNEDEISFSKGQLINVMNKDDPDWWQGEINGVTGLFPSNYVKM [L18I], the abundance fitness was -0.001 ± 0.058.
With VCQVIAMYDYAANNEDEVSFSKGQLINVMNKDDPDWWQGEINGVTGLFPSNYVKM [L18V], the abundance fitness was -0.092 ± 0.041.
Consider VCQVIAMYDYAANNEDEGSFSKGQLINVMNKDDPDWWQGEINGVTGLFPSNYVKM [L18G], for which the abundance fitness is -0.861 ± 0.056.
Take VCQVIAMYDYAANNEDETSFSKGQLINVMNKDDPDWWQGEINGVTGLFPSNYVKM [L18T]: the abundance fitness is -0.778 ± 0.053.
On to VCQVIAMYDYAANNEDENSFSKGQLINVMNKDDPDWWQGEINGVTGLFPSNYVKM [L18N], for which the abundance fitness is -0.783 ± 0.18.
On to VCQVIAMYDYAANNEDEKSFSKGQLINVMNKDDPDWWQGEINGVTGLFPSNYVKM [L18K], for which the abundance fitness is -0.647 ± 0.082.
As for VCQVIAMYDYAANNEDELQFSKGQLINVMNKDDPDWWQGEINGVTGLFPSNYVKM [S19Q], the figure is -0.217 ± 0.044.
For VCQVIAMYDYAANNEDELCFSKGQLINVMNKDDPDWWQGEINGVTGLFPSNYVKM [S19C], the abundance fitness is -0.066 ± 0.055.
Regarding VCQVIAMYDYAANNEDELHFSKGQLINVMNKDDPDWWQGEINGVTGLFPSNYVKM [S19H], the abundance fitness is -0.123 ± 0.043.
As to VCQVIAMYDYAANNEDELLFSKGQLINVMNKDDPDWWQGEINGVTGLFPSNYVKM [S19L], the abundance fitness is -0.615 ± 0.036.
On to VCQVIAMYDYAANNEDELIFSKGQLINVMNKDDPDWWQGEINGVTGLFPSNYVKM [S19I], for which the abundance fitness is -0.515 ± 0.058.
As for VCQVIAMYDYAANNEDELGFSKGQLINVMNKDDPDWWQGEINGVTGLFPSNYVKM [S19G], the figure is -0.052 ± 0.045; as for VCQVIAMYDYAANNEDELFFSKGQLINVMNKDDPDWWQGEINGVTGLFPSNYVKM [S19F], -0.256 ± 0.056; as for VCQVIAMYDYAANNEDELAFSKGQLINVMNKDDPDWWQGEINGVTGLFPSNYVKM [S19A], -0.045 ± 0.046.
For VCQVIAMYDYAANNEDELKFSKGQLINVMNKDDPDWWQGEINGVTGLFPSNYVKM [S19K], the abundance fitness was -0.163 ± 0.046.
On to VCQVIAMYDYAANNEDELNFSKGQLINVMNKDDPDWWQGEINGVTGLFPSNYVKM [S19N], for which the abundance fitness is -0.047 ± 0.058.
For VCQVIAMYDYAANNEDELEFSKGQLINVMNKDDPDWWQGEINGVTGLFPSNYVKM [S19E], the abundance fitness was -0.193 ± 0.06.
For the variant VCQVIAMYDYAANNEDELDFSKGQLINVMNKDDPDWWQGEINGVTGLFPSNYVKM [S19D], the abundance fitness is -0.168 ± 0.075.
As to VCQVIAMYDYAANNEDELWFSKGQLINVMNKDDPDWWQGEINGVTGLFPSNYVKM [S19W], the abundance fitness is -0.313 ± 0.044.
Consider VCQVIAMYDYAANNEDELMFSKGQLINVMNKDDPDWWQGEINGVTGLFPSNYVKM [S19M], for which the abundance fitness is -0.21 ± 0.036.

The record behind these values is the Human Domainome abundance scans (Beltran et al. 2025).
